Key:
[1] = target: T1, EGFRvIII, full length, overexpressed on glioblastoma cells (human, UniProt P00533 298-623); test: flow cytometry dose-response on U87MG-EGFRvIII cells, apparent Kd
T1 construct: Cells overexpress full length EGFRvIII (deletion of exons 2-7 of EGFR); Cell line (U87MG or DKMG) is named under assay; also called U87MG-EGFRvIII; U87vIII

[2] = target: T1, EGFRvIII, full length, overexpressed on …; test: cell-based or functional assay
[3] = target: T2, EGFRvIII fragment amino acid residues 15 to 37, displayed on yeast (human); test: yeast surface display, flow cytometry
T2 construct: also called aa 15-37; fragment 15-37
T2 peptide: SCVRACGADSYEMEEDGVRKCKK
Description: (§1) Assessment of the binding of anti-EGFRvIII mAbs to the fusion proteins expressed on yeast cell surface was done by flow cytometry analysis. Briefly, yeast cells were labeled with both the anti-hEGFRvIII mAb and chicken anti-Myc antibody, the latter being used to monitor the level of expression of the fusion protein. Following a wash step, binding of the primary antibodies is probed by a two-color indirect fluorescence labeling using secondary antibodies specific for mouse and chicken antibodies, respectively.

[4] = target: T1, EGFRvIII, full length, overexpressed on …; test: cell-based or functional assay; remark: listed apart in the source
[5] = target: T3, recombinant human EGFRvIII protein (extracellular domain), denatured (human, UniProt P00533 298-623); test: ELISA Exp 2, purified mAb 1 ug/ml;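 further: ELISA of purified mAb binding to plate-coated antigen, native or heat/DTT-denatured, with pNPP substrate developed for 30 min and incubations at room temperature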
T3 construct: Same protein as m21 after 95 C for 5 min in PBS with 40 mM DTT (denatured, reduced); also called EGFRvIII Denatured
Protocol: (§2) Pre- and post-immune sera titers of animals were assessed by ELISA on recombinant EGFRvIII protein. Unless otherwise stated, all incubations were performed at room temperature. […] Microplates were washed three times in PBS and blocked for 30 min with PBS containing 1% bovine serum albumin (BSA, Sigma Cat #A7030). Blocking buffer was removed and 25 μl of serial dilutions of sera samples were added. […] After a 1-h incubation, microplates were washed 4 times and 25 μl of p-nitrophenyl phosphate (pNPP) substrate (Sigma-Aldrich Canada Co., Oakville, ON) at 1 mg/ml in carbonate buffer at pH 9.6 was added and further incubated for 30 min.
(§3) Antigens at 1-2 mg/ml were incubated at 95° C. for 5 min in PBS containing DTT at a final concentration of 40 mM. They were then incubated on ice for 5 min and diluted at their final coating concentration for ELISA purpose.
(§4) ELISA was performed as described above (serum titer determination) using 25 μl of mAb supernatant (Exp 1) or purified mAb at 1 μg/ml (Exp 2).

[6] = target: T4, recombinant human EGFRvIII protein (extracellular domain), native (human, UniProt P00533 298-623); test: ELISA Exp 2, purified mAb 1 ug/ml;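 further: ELISA of purified mAb binding to plate-coated antigen, native or heat/DTT-denatured, with pNPP substrate developed for 30 min and incubations at room temperature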
T4 construct: also called hEGFRvIII
Protocol: as §2, §3, §4

[7] = target: T5, recombinant human wild type EGFR protein (extracellular domain), denatured (human, UniProt P00533 25-645); test: ELISA Exp 2, purified mAb 1 ug/ml;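 further: ELISA of purified mAb binding to plate-coated antigen, native or heat/DTT-denatured, with pNPP substrate developed for 30 min and incubations at room temperature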
T5 construct: Same protein as m23 after 95 C for 5 min in PBS with 40 mM DTT (denatured, reduced); also called wt EGFR Denatured
Protocol: as §2, §3, §4

[8] = target: T6, recombinant human wild type EGFR protein (extracellular domain), native (human, UniProt P00533 25-645); test: ELISA Exp 2, purified mAb 1 ug/ml;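 further: ELISA of purified mAb binding to plate-coated antigen, native or heat/DTT-denatured, with pNPP substrate developed for 30 min and incubations at room temperature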
T6 construct: also called wt EGFR; EGFR WT
Protocol: as §2, §3, §4

[9] = target: T3, recombinant human EGFRvIII protein …; test: ELISA Exp 1, mAb supernatant
Protocol: as §2, §3, §4

[10] = target: T4, recombinant human EGFRvIII protein …; test: ELISA Exp 1, mAb supernatant
Protocol: as §2, §3, §4

[11] = target: T5, recombinant human wild type EGFR …; test: ELISA Exp 1, mAb supernatant
Protocol: as §2, §3, §4

[12] = target: T6, recombinant human wild type EGFR …; test: ELISA Exp 1, mAb supernatant
Protocol: as §2, §3, §4

[13] = target: T7, EGFRvIII amino acid residues 15 to 37 with Val32 to Ala mutation (human); test: yeast display flow cytometry, Myc-normalized;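 further: Anti-EGFRvIII monoclonal antibodies tested by flow cytometry on yeast displaying alanine-substituted fragments, two-color indirect fluorescence with anti-Myc signal tracking fusion protein expression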
T7 construct: mutation is already in the entry
T7 peptide: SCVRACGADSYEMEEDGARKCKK

[14] = target: T8, EGFRvIII amino acid residues 15 to 37 with Glu26 to Ala mutation (human); test: yeast display flow cytometry, Myc-normalized;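 further: Anti-EGFRvIII monoclonal antibodies tested by flow cytometry on yeast displaying alanine-substituted fragments, two-color indirect fluorescence with anti-Myc signal tracking fusion protein expression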
T8 construct: mutation is already in the entry
T8 peptide: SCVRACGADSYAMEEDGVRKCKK

[15] = target: T9, EGFRvIII amino acid residues 15 to 37 with Met27 to Ala mutation (human); test: yeast display flow cytometry, Myc-normalized;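 further: Anti-EGFRvIII monoclonal antibodies tested by flow cytometry on yeast displaying alanine-substituted fragments, two-color indirect fluorescence with anti-Myc signal tracking fusion protein expression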
T9 construct: mutation is already in the entry
T9 sequence (peptide, as listed by the source, change not shown): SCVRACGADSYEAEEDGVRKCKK

[16] = target: T10, EGFRvIII amino acid residues 15 to 37 with Glu28 to Ala mutation (human); test: yeast display flow cytometry, Myc-normalized;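 further: Anti-EGFRvIII monoclonal antibodies tested by flow cytometry on yeast displaying alanine-substituted fragments, two-color indirect fluorescence with anti-Myc signal tracking fusion protein expression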
T10 construct: mutation is already in the entry
T10 peptide: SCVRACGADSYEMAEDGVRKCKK

[17] = target: T11, EGFRvIII amino acid residues 15 to 37 with Arg33 to Ala mutation (human); test: yeast display flow cytometry, Myc-normalized
T11 construct: mutation is already in the entry
T11 peptide: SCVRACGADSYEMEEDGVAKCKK

[18] = target: T12, EGFRvIII amino acid residues 15 to 37 with Ser15 to Ala mutation (human); test: yeast display flow cytometry, Myc-normalized
T12 construct: mutation is already in the entry
T12 peptide: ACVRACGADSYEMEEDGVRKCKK

[19] = target: T13, EGFRvIII amino acid residues 15 to 37 with Lys34 to Ala mutation (human); test: yeast display flow cytometry, Myc-normalized
T13 construct: mutation is already in the entry
T13 peptide: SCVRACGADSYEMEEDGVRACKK

[20] = target: T14, EGFRvIII amino acid residues 15 to 37 with Lys36 to Ala mutation (human); test: yeast display flow cytometry, Myc-normalized
T14 construct: mutation is already in the entry
T14 peptide: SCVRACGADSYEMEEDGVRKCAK

[21] = target: T15, EGFRvIII amino acid residues 15 to 37 with Asp23 to Ala mutation (human); test: yeast display flow cytometry, Myc-normalized
T15 construct: mutation is already in the entry
T15 peptide: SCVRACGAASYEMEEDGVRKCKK

[22] = target: T16, EGFRvIII amino acid residues 15 to 37 with Ser24 to Ala mutation (human); test: yeast display flow cytometry, Myc-normalized
T16 construct: mutation is already in the entry
T16 peptide: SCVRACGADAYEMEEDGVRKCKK

[23] = target: T17, EGFRvIII amino acid residues 15 to 37 with Glu29 to Ala mutation (human); test: yeast display flow cytometry, Myc-normalized
T17 construct: mutation is already in the entry
T17 peptide: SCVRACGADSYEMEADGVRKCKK

[24] = target: T18, EGFRvIII amino acid residues 15 to 37 with Val17 to Ala mutation (human); test: yeast display flow cytometry, Myc-normalized
T18 construct: mutation is already in the entry
T18 peptide: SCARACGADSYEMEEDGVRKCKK

[25] = target: T19, EGFRvIII amino acid residues 15 to 37 with Gly31 to Ala mutation (human); test: yeast display flow cytometry, Myc-normalized
T19 construct: mutation is already in the entry
T19 peptide: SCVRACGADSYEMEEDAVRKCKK

[26] = target: T20, EGFRvIII amino acid residues 15 to 37 with Cys16 to Ala mutation (human); test: yeast display flow cytometry, Myc-normalized
T20 construct: mutation is already in the entry
T20 peptide: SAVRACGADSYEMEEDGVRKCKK

[27] = target: T21, EGFRvIII amino acid residues 15 to 37 with Tyr25 to Ala mutation (human); test: yeast display flow cytometry, Myc-normalized
T21 construct: mutation is already in the entry
T21 peptide: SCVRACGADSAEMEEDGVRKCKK

[28] = target: T22, EGFRvIII amino acid residues 15 to 37 with Lys37 to Ala mutation (human); test: yeast display flow cytometry, Myc-normalized
T22 construct: mutation is already in the entry
T22 peptide: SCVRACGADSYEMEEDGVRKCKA

[29] = target: T23, EGFRvIII amino acid residues 15 to 37 with Asp30 to Ala mutation (human); test: yeast display flow cytometry, Myc-normalized
T23 construct: mutation is already in the entry
T23 peptide: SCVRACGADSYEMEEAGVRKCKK

[30] = target: T24, EGFRvIII amino acid residues 15 to 37 with Cys35 to Ala mutation (human); test: yeast display flow cytometry, alanine scan
T24 construct: mutation is already in the entry
T24 peptide: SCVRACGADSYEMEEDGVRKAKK
Description: as §1
(§5) To further characterize mAb epitopes within the EGFRvIII 15-37 region, an alanine scan of this region was performed, and modified fragments were expressed at the surface of the yeast. […] The resulting peptides were expressed at the surface of the yeast and each anti-EGFRvIII mAbs was tested on the corresponding yeast mutant strain by flow cytometry analysis. Thus, this assay determined the contribution of each amino acid(s) in the monoclonal antibody binding.

[31] = target: T25, EGFRvIII amino acid residues 15 to 37 with Arg18 to Ala mutation (human); test: yeast display flow cytometry, alanine scan
T25 construct: mutation is already in the entry
T25 peptide: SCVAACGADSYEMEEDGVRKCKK
Description: as §1, §5

[32] = target: T26, EGFRvIII amino acid residues 15 to 37 with Cys20 to Ala mutation (human); test: yeast display flow cytometry, alanine scan
T26 construct: mutation is already in the entry
T26 peptide: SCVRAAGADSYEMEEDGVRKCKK
Description: as §1, §5

[33] = target: T27, EGFRvIII amino acid residues 15 to 37 with Gly21 to Ala mutation (human); test: yeast display flow cytometry, alanine scan
T27 construct: mutation is already in the entry
T27 peptide: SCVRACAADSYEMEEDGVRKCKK
Description: as §1, §5

[34] = target: T5, recombinant human wild type EGFR …; test: ELISA on recombinant antigen
Protocol: as §2, §3, §4

[35] = target: T6, recombinant human wild type EGFR …; test: ELISA on recombinant antigen
Protocol: as §2, §3, §4

[36] = target: T28, wild type human EGFR, full length, overexpressed on U87MG cells (human, UniProt P00533 25-1210); test: flow cytometry dose-response, U87MG-EGFRwt cells
T28 construct: also called U87MG-EGFR wt; U87 WT
Protocol: Prior to analysis, cells were plated such that they were not more than 80% confluent on the day of analysis. Unless otherwise stated, all media are kept are 4° C. and all incubations are performed on wet ice. Cells were washed in PBS, harvested by the addition of cell dissociation buffer (Sigma), centrifuged and resuspended in complete medium at a cell density of 2×10⁶ cells/mL. Fifty μL/well of cells were distributed in a polypropylene v-bottom 96 well plate and serial 1/3 dilutions of purified mAbs starting at 100 nM were added and incubated for 2 hours. […] Cells were washed and re-suspended in medium containing Propidium iodide to exclude dead cells from analysis. Samples were filtered through a 60 μm nylon mesh filter plate (Millipore, Ireland) to remove cell aggregates. Flow cytometry analyses were performed on 2,000 viable single-cells events gated on forward scattering, side scattering parameters and propidium iodide dye exclusion using a BD-LSRFortessa flow cytometer (Becton-Dickinson Biosciences, CA, USA) and a standard filter set using BD FACSDiva™ acquisition software, according to manufacturer's instructions.
Specific detection of antibody binding was calculated as the mean fluorescent intensity of binding to each primary antibody after background level subtraction of the mean fluorescent intensity of binding of mouse IgG control. The data were analyzed with GraphPad Prism v 6.0 software using one-site specific binding with Hill slope non-linear regression curve fit model to determine Bmax (maximum specific binding) and Kdₐₚₚ (concentration needed to achieve a half-maximum binding at equilibrium) for each mAb tested.

B1: F263-5D8 (antibody, V domains shown)
VH: EVQLQQSGPDLVKPGSSVKISCKASGYTFTDYNIDWVKQSHGKSLEWIGTINPNYGGTSYNQKFKGKATLTVDKSSSTAYMELRSLTSEDSAVYYCARGYDYDLWFAYWGQGTLVTVSA
VL: EIVLTQSPVFMAASPGEKVTITCSVSSSISSSNLHWYQQKSETSPKPWIYGTSNLASGVPVRFSGSGSGTSYSLTISSMEAEDAATYYCQQWSSYPLTFGAGTKLELK
notes: Mouse hybridoma mAb
Kd [1]: 19.7 nM | % internalization (pHrodo surrogate assay, vs 225 mAb) [2]: 64% | binding result [3]: binds | % survival (DM1 secondary-conjugate ADC surrogate assay, vs mouse IgG) [4]: 69% | ELISA absorbance 405 nm [5]: 0.848 A405 | ELISA absorbance 405 nm [6]: 1.49 A405 | ELISA absorbance 405 nm [7]: 0 A405 | ELISA absorbance 405 nm [8]: 0.159 A405 | ELISA absorbance 405 nm [9]: 1.86 A405 | ELISA absorbance 405 nm [10]: 1.43 A405 | ELISA absorbance 405 nm [11]: 0.049 A405 | ELISA absorbance 405 nm [12]: 1.38 A405 | % of binding vs wild-type fragment 15-37 [13]: 95.2% | % of binding vs wild-type fragment 15-37 [14]: 37.9% | % of binding vs wild-type fragment 15-37 [15]: 96.5% | % of binding vs wild-type fragment 15-37 [16]: 81.6% | % of binding vs wild-type fragment 15-37 [17]: 71.8% | % of binding vs wild-type fragment 15-37 [18]: 93.1% | % of binding vs wild-type fragment 15-37 [19]: 151% | % of binding vs wild-type fragment 15-37 [20]: 97.9% | % of binding vs wild-type fragment 15-37 [21]: 106% | % of binding vs wild-type fragment 15-37 [22]: 246% | % of binding vs wild-type fragment 15-37 [23]: 77.3% | % of binding vs wild-type fragment 15-37 [24]: 144% | % of binding vs wild-type fragment 15-37 [25]: 40.4% | % of binding vs wild-type fragment 15-37 [26]: 154% | % of binding vs wild-type fragment 15-37 [27]: 108% | % of binding vs wild-type fragment 15-37 [28]: 194% | % of binding vs wild-type fragment 15-37 [29]: 80.4% | binding result [30]: no binding (tested: 0-15% of wild-type binding) | binding result [31]: no binding (tested: 0-15% of wild-type binding) | binding result [32]: no binding (tested: 0-15% of wild-type binding) | binding result [33]: no binding (tested: 0-15% of wild-type binding)

B2: 13.1.2 mIgG1 (antibody, V domains shown)
VH: QVQLVESGGGVVQPGRSLRLSCAASGFTFSSYGMHWVRQAPGKGLEWVAVIWYDGSNKYYVDSVKGRFTISRDNSKNTLYLQMNSLRAEDTAVYYCARDGWQQLAPFDYWGQGTLVTVSS
VL: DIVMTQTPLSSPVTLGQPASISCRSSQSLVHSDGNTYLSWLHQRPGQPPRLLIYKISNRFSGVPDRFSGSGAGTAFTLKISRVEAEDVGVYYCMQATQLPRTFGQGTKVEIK
Kd [1]: 4.3 nM | binding result [34]: no binding | binding result [35]: no binding | ELISA absorbance 405 nm [5]: 1.71 A405 | ELISA absorbance 405 nm [6]: 1.67 A405 | ELISA absorbance 405 nm [7]: 0.005 A405 | ELISA absorbance 405 nm [8]: 0.003 A405 | binding result [36]: no binding (tested: 100 nM highest concentration) | ELISA absorbance 405 nm [9]: 1.91 A405 | ELISA absorbance 405 nm [10]: 1.1 A405 | ELISA absorbance 405 nm [11]: 0.003 A405 | ELISA absorbance 405 nm [12]: 0.011 A405
